Data on 3 molecules can be found in patent US20230398224A1.

Positions of bridges follow the written chain, without caps; N, C: chain ends. Non-standard residues stand in square brackets, D forms with d. Groups on a side chain read outwards from the residue. int‑CC7 = mannose-6-phosphonate M6PR ligand; Bip = N[C@@H](Cc1ccc(-c2ccccc2)cc1)C(=O)O; NMeA = CN[C@@H](C)C(=O)O

This experiment concerns the target Purified recombinant full length human PCSK9 with C-terminal biotinylated Avitag (human) (UniProt Q8NBP7). In words: SPR, ProteOn XPR36; biotinylated human PCSK9 on NeutrAvidin NLC chip. A general note: Surface plasmon resonance follows binding to a sensor surface in real time, without labels.

Chain of Purified recombinant full length human PCSK9 with C-terminal biotinylated Avitag (human) (Q8NBP7 31-692): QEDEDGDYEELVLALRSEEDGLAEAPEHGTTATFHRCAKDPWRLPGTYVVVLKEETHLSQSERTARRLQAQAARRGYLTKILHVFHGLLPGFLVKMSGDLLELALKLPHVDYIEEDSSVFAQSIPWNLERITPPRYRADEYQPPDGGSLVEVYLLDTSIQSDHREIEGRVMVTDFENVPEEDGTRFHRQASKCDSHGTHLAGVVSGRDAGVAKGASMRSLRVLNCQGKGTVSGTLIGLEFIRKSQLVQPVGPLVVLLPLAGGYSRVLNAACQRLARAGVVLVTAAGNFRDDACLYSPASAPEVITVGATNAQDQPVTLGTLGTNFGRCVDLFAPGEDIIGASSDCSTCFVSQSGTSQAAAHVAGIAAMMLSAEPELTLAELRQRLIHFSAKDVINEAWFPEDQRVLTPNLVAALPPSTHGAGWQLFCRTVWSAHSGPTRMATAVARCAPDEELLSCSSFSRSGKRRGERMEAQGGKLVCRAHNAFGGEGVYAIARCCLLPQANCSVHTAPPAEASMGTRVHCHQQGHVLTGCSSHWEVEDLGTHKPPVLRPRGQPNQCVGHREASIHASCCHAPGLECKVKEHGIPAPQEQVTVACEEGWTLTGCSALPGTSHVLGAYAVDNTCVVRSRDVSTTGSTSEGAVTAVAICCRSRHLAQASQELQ

B1: Bifunctional compound (BFC-9) (peptide)
peptide: {CH2CO}-FVPTT[Bip][NMeA][Bip][NMeA]EAPCGK([Lys(4-oxopentanoyl)-int‑CC7])-NH2
modifications: thioether N-13; not fully specified; also: further groups not given here
What is called Kd is the constant that tells how readily two partners part at equilibrium. Take B1: the Kd amounted to 7.4 nM.

B2: Bifunctional compound (BFC-8) (peptide)
peptide: {CH2CO}-FVPTT[Bip][NMeA][Bip][NMeA]EAPCGK([Lys(4-oxopentanoyl)-int‑CC7])-NH2
modifications: thioether N-13; not fully specified; also: further groups not given here
Consider B2, for which the Kd amounted to 4.9 nM.

B3: Bifunctional compound (BFC-3) (peptide)
peptide: {CH2CO}-FVPTT[Bip][NMeA][Bip][NMeA]EAPCGK-NH2
modifications: thioether N-13; not fully specified (residue 15); also: further groups not given here
With B3, the Kd turned out to be 7.7 nM.
